Results on 84 variants are retold here after the RNAGym collection of RNA variant scans (doi:10.1073/pnas.2313332121).

B1: TPR t1 (parent)
chain: GACCAAUCUGCCCUCAGAGCUCGAGAACAUCUUCGGAUGCAGAGGAGGCAGGCUUCGGUGGCGCGAUAGCGCCAACGUCCUCAACCUCCAAUGCAUCCCACCACAUGAUGAUGCCUGAAGAGCCUUGGUUUUUUG

This series covers variants of B1. As to the kind of experiment: polymerase ribozyme fitness, log enrichment relative to wild type (log ratio); higher = more active; in vitro selection for triplet polymerase activity. A digest of the protocol:
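Fitness measures genotype enrichment against wild-type enrichment on a logarithmic scale, with inverse-variance-weighted averaging of replicates. The logarithm is base 2, and genotypes were kept only with ≥10 input reads and ≥1 read per output in Illumina sequencing. The sequenced libraries came from one triplicate in vitro selection round, including frozen incubation at −7 °C, of PCR-built, transcribed mutant libraries of each subunit of a heterodimeric triplet polymerase ribozyme.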
Turning to A27G A46C A50U, the “polymerase ribozyme fitness (log ratio)” value is -4.64.
In the case of G60C G128C it was -2.73; in that of G10U A50C C73A U78G A90G, -0.824; in that of A41C C70A U78C G128U U131C, -4.08.
With A43U G63A A103U G117C U131A, the “polymerase ribozyme fitness (log ratio)” value was -6.74.
Regarding G17U G61A U81G C101G G117C G128U, the “polymerase ribozyme fitness (log ratio)” value is -7.2.
In the case of C12G A46U C102A it was -2.85.
In the case of U54A C115G it was -2.09.
In the case of A41C C64A A90G it was -4.74; in that of A37G G60C G117A, -1.95.
For G17C C28U G61U C85A G110A G120C, the “polymerase ribozyme fitness (log ratio)” value was -1.25.
The result for G39A G47U reads -2.07.
A5U G10U G45C G51A A118U G120A: the “polymerase ribozyme fitness (log ratio)” value was -2.81.
For A29G A37C, the “polymerase ribozyme fitness (log ratio)” value is -2.19.
The result for C15A G39A C53A U125A reads -3.62.
The result for C15U A95G reads -1.71; that for A5G C53A G61A C101U, 0.0588.
In the case of C22A G57C C86U it was -4.83; in that of G47A C85A, -2.48; in that of C13U A37G C101U, -0.644.
As to C49G G69U G117A, the “polymerase ribozyme fitness (log ratio)” value was -1.13.
The result for U59A A90G C123U reads 1.4.
As to A26U G69U, the “polymerase ribozyme fitness (log ratio)” value was -1.44.
The result for C40A A46G U132A reads -1.49; that for C11G G61A C124A, 2.07; that for C8A G25U A26C C40U G63U C88G U112C C123A C124A U130A, -7.64.
The result for G93A G113A reads -0.607; that for C20U A100U G120U, -1.89.
As to C34A A100G, the “polymerase ribozyme fitness (log ratio)” value was -5.07.
The result for C4G C86A reads -2.95; that for G39U G120U, -0.816; that for A29U C76U U78A, -2.22.
C20A C72A C101A: the “polymerase ribozyme fitness (log ratio)” value is -5.69.
In the case of C49U U59G C72U it was -1.12; in that of C49G C72U, -0.921.
The result for U9C G60A reads 0.405; that for G69U G93A, -0.201; that for G36U A84C C85G C86U, -2.86.
The result for C22U C62A U106G A108C A121G G122U reads -7.34; that for G77C C97U U109A, -5.64; that for A2C A6C C8A G71A A84U U129A, -2.03.
For C12G G48A G93A, the “polymerase ribozyme fitness (log ratio)” value is -1.44.
With C56G A74U G120U G127A, the “polymerase ribozyme fitness (log ratio)” value was -1.98.
With G39A G60A C86U U116A, the “polymerase ribozyme fitness (log ratio)” value is -3.99.
In the case of G113U G120A U132A it was -3.83; in that of A111C A119U, -2.28; in that of C56G C114U, -2.55.
The result for C4G C13U C53U C115G A121U reads 0.995.
Consider U9G C94A U125G, for which the “polymerase ribozyme fitness (log ratio)” value is -1.1.
In the case of C13U G45U G117U, the “polymerase ribozyme fitness (log ratio)” value was -2.03.
With C13U G47U G135U, the “polymerase ribozyme fitness (log ratio)” value was -2.07.
As to C70G U78A C86A, the “polymerase ribozyme fitness (log ratio)” value is -3.32.
In the case of A5U A18C G57U it was -2.21; in that of G52C G120U, -0.715; in that of A26G C53A C56U G93C U96G, -4.22.
The result for C79A U81C C89U G93U G120C C124U reads -3.62.
Regarding G60U G63U G113U G117U, the “polymerase ribozyme fitness (log ratio)” value was -5.19.
Take C49G C101A C124U: the “polymerase ribozyme fitness (log ratio)” value was 0.417.
In the case of A2C U9G C20A G71A A121U it was -3.49; in that of G23U A29G C70A A83U C85A C115U, -7.23; in that of G10A G128U, -2.02.
As for A50U C53A U55C C73U, the “polymerase ribozyme fitness (log ratio)” value is -0.723.
The result for C4G G63U G120U G122U reads -1.51; that for C4A C88U G120U, -2.67; that for C15U U38G G45A G60C A74U, -4.34.
The result for A2G G57C U59G A100U U106C reads -0.973.
Take U106A U109A: the “polymerase ribozyme fitness (log ratio)” value was -3.73.
On to A16U C49A C72A, for which the “polymerase ribozyme fitness (log ratio)” value is -1.6.
In the case of C4A C72U it was -1.93; in that of A46G C86G, -1.96; in that of G77U C79U U106C, -0.595.
The result for C123A U126A U130G U133G reads 0.742.
For the variant G10U C13G G45U C56A U87A C94U C124G, the “polymerase ribozyme fitness (log ratio)” value is -0.526.
In the case of C79U A95C A118U it was -0.263.
The result for C11A G17U G61C A84G C124A reads -4.74.
The result for G61A C124A reads 1.79; that for C89A G110U, -3.66.
Turning to U7G G10A G19U G113A, the “polymerase ribozyme fitness (log ratio)” value was -1.32.
The result for A6U C12A G61U reads 0.0933; that for A27C G120U, -4.08.
In the case of U21C G63A, the “polymerase ribozyme fitness (log ratio)” value was -0.609.
In the case of C28A A50C C72U G113A it was -3.3.
The result for A27C C123A reads -3.14.
On to C12U G17U, for which the “polymerase ribozyme fitness (log ratio)” value was -0.854.
